Earlier results as cited in article PMC4041007.

Key:
LLT1 (Homo sapiens) = LLT1 (Homo sapiens) (UniProt Q9UHP7)
KACL (Homo sapiens) = KACL (Homo sapiens) (UniProt Q6UVW9)
Chain of UniProt Q6UVW9 (Q6UVW9 whole entry): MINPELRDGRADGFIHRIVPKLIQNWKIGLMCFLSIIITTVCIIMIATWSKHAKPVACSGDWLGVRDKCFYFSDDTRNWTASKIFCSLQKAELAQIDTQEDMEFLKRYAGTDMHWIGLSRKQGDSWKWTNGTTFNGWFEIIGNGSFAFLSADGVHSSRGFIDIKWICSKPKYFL

Chain of UniProt Q9UHP7 (Q9UHP7 whole entry): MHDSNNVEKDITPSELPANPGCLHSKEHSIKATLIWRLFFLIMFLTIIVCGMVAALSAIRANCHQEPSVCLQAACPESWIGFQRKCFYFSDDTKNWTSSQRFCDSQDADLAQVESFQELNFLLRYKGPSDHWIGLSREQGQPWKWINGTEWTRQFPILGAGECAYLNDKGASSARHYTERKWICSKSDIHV

Kd (LLT1 (Homo sapiens))	Kd (KACL (Homo sapiens))	Substance
50 µM		NKR-P1A (from UniProt Q12918)
	0.002 µM	NKp65 (from UniProt D3W0D1)
